For assay [1], the target named is human IgE from serum of a representative allergic subject with high IgE reactivity to house dust mite allergens (human). In words: competitive inhibition ELISA, human serum IgE, GST-Blo t5 on plate, inhibitor at 10 µg/ml.
Assay [2] shares this target. Put plainly: competitive inhibition ELISA, human serum IgE, GST-Blo t5 on plate. For orientation: In an ELISA, binding on a coated surface is turned into a signal by an enzyme label.

B1: Blo t 5 (recombinant major house dust mite allergen from Blomia tropicalis) (protein)
chain: QEHKPKKDDFRNEFDHLLIEQANHAIEKGEHQLLYLQHQLDELNENKSKELQEKIIRELDVVCAMIEGAQGALERELKRTDLNILERFNYEEAQTLSKILLKDLKETEQKVKDIQTQ
B1 yielded an inhibition of IgE binding to GST-Bt5 in assay [1] of 100%.

B2: Blo t 5-Fve (two-in-one chimeric wild type) fusion protein (protein)
chain: QEHKPKKDDFRNEFDHLLIEQANHAIEKGEHQLLYLQHQLDELNENKSKELQEKIIRELDVVCAMIEGAQGALERELKRTDLNILERFNYEEAQTLSKILLKDLKETEQKVKDIQTQSATSLTFQLAYLVKKIDFDYTPNWGRGTPSSYIDNLTFPKVLTDKKYSYRVVVNGSDLGVESNFAVTPSGGQTINFLQYNKGYGVADTKTIQVFVVIPDTGNSEEYIIAEWKKT
On to B2, for which the maximum inhibition of IgE binding to GST-Blo t5 in assay [2] worked out at 70%.
